Assay [1] addresses T1, N-Term Biotin-Nav1.7 (3-1) peptide, human (human, not fully specified; N-terminal biotin attached via a G4S linker).
T1 construct: ELISA peptide
T1 peptide: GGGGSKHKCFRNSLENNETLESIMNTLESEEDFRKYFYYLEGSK
Nature of the assay: ELISA on coated peptide, antibody 1 ug/ml, OD450 grade. Put shortly:
(§1)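 Binding graded from absorbance at OD450 for antibodies applied at 1 μg/ml (− below 0.2, + 0.2–1, ++ 1–2, +++ 2–4; NT not tested); antibodies were also run at 0.1 μg/mL. Biotin-peptides at 0.4 μg/mL on avidin-coated plates, other peptides at 4 μg/mL; 1 h RT binding; HRP anti-IgG/TMB detection.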
(In an ELISA, binding on a coated surface is turned into a signal by an enzyme label.)

Assay [2] concerns the target T2, Native Nav1.7 (3-1) peptide, rat (rat).
T2 construct: Synthetic peptide; also called Rat Nav1.7 3-1 native
T2 peptide: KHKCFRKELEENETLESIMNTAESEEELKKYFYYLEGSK
The description is as above. In short, it runs like this: as §1

Assay [3] has as its target T3, N-Term Biotin Nav1.7 (3-1) peptide, mulatta (mulatta (monkey), not fully specified; N-terminal biotin attached via a G4S linker).
T3 construct: Synthetic peptide; also called Mulatta Nav1.7 3-1 N-term biotin; monkey
T3 peptide: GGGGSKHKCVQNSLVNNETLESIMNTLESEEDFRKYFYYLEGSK
The description is as above. In short, it runs like this: as §1

The target in assay [4] is T4, Native Nav1.7 (3-1) peptide, human (human).
T4 construct: Synthetic peptide (Celtek), unbiotinylated; also called Human Nav1.7 3-1 native; Nav1.7 3-1 native peptide
T4 peptide: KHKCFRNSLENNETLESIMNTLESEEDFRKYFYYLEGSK
Nature of the assay: Biacore (second token of ELISA/Biacore summary). (In general: SPR reads the build-up and loss of mass on a sensor chip optically.)

The target in assay [5] is T5, full-length human Nav1.7 fused at its N-terminus to GFP, expressed in HEK293 cells (human, UniProt Q15858 1-1988). Nature of the assay: cell-based or functional assay.
Assay [6] concerns the target T3, N-Term Biotin Nav1.7 (3-1) peptide, …. Nature of the assay: ELISA on coated peptide. The protocol:
(§2) Anti-Naᵥ 1.7 antibodies were tested for their ability to bind to the Naᵥ 1.7 peptides. The various peptides were coated overnight onto 96-well Nunc Immunosorp plates at a concentration of 4 μg/mL in PBS, followed by blocking for 1 hour in a suitable blocking agent. For biotinylated peptides, avidin was first coated on Nunc Immunosorp plates at 2 μg/mL in PBS overnight, followed by blocking as described, and the plate was then coated with biotinylated peptides at a concentration of 0.4 μg/mL and incubated for 1 hour at room temperature. Purified anti-Naᵥ 1.7 antibodies were diluted to a final concentration of 0.1 μg/mL and 1.0 μg/mL and added to the wells of the coated microtiter plates followed by incubation for 1 hour at room temperature. Bound antibodies were detected with horseradish peroxidase (HRP) conjugated anti-mouse or anti-human IgG (Jackson Immuno Research Lab, West Grove, Pa.) depending on the antibody species and developed by colorimetric response using tetramethylbenzidine (TMB) substrate (BD Biosciences). Absorbance was read at OD₄₅₀ on a plate reader for 0.1 second.
(§3) Values in Table 11 represent absolute binding ranges (at OD450) to plate-coated peptides for antibodies added at 1 μg/ml as follows: OD450<0.2: −; 0.2<OD450<1: +; 1<OD450<2: ++; 2<OD450<4: +++; NT: Not Tested.

Assay [7] has as its target T4, Native Nav1.7 (3-1) peptide, human. The assay is described as follows: SPR, captured antibody, peptide analyte. Put shortly: (§4)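 Peptide analytes flowed at multiple concentrations over anti-Nav1.7 antibodies held by an anti-Fc capture surface. After reference-surface and buffer-blank subtraction, a global 1:1 Langmuir fit gave ka and kd, with KD as kd/ka and dissociative half-life as ln2/kd.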

Assay [8] addresses T3, N-Term Biotin Nav1.7 (3-1) peptide, …. The assay is described as follows: SPR, captured antibody, peptide analyte. Put shortly:
as §4

Assay [9] concerns the target T6, Native Nav1.7 (3-3) peptide, rat (rat).
T6 construct: ELISA peptide
T6 peptide: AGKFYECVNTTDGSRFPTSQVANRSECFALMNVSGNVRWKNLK
Nature of the assay: ELISA on coated peptide. The protocol:
as §2, §3

Assay [10] addresses T7, N-Term Biotin-Nav1.7 (3-3) peptide, human (same sequence of EC3-3 for mulatta) (human (same sequence of EC3-3 for …, not fully specified; N-terminal biotin attached via a G4S linker).
T7 construct: ELISA peptide
T7 peptide: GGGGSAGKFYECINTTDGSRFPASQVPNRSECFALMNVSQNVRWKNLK
The assay is described as follows: ELISA on coated peptide, antibody 1 ug/ml, OD450 grade; Monkey column. As for the experimental part:
as §2, §3

In assay [11] the target is T7, N-Term Biotin-Nav1.7 (3-3) peptide, …. The assay is described as follows: ELISA on coated peptide, antibody 1 ug/ml, OD450 grade; Human. The protocol: as §2, §3
In assay [12] the target is T8, N-term Biotin Nav1.7 (3-3) peptide, mouse (mouse, N-terminal biotin attached via a G4S linker).
T8 construct: ELISA peptide
T8 peptide: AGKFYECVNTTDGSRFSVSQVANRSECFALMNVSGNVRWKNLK
Nature of the assay: ELISA on coated peptide. The protocol: as §2, §3

Assay [13] deals with T6, Native Nav1.7 (3-3) peptide, rat. Nature of the assay: ELISA on coated peptide, antibody 1 ug/ml, OD450 grade. In short, it runs like this:
as §1

In assay [14] the target is T4, Native Nav1.7 (3-1) peptide, human. Nature of the assay: SPR, captured antibody, peptide analyte; IC = binding data could not be fit. As for the experimental part:
The binding affinities of anti-Naᵥ 1.7 antibodies to Naᵥ 1.7 loop peptides were determined by Biacore. For monovalent kinetic experiments, antibodies were captured through the Fc region via a goat anti-Fc-coupled biosensor surface, and the peptides (as analyte) were injected over this captured antibody surface. For bivalent (avidity-driven) kinetic experiments, biotinylated peptides corresponding to the Naᵥ 1.7 3-1, 3-3, or paddle loop sequences were captured on a NeutrAvidin sensor surface, and anti-Naᵥ 1.7 antibodies (as analyte) were injected over this surface. Following the capture step, each analyte was individually injected at several concentrations over its respective capture surface, and changes in bound surface units (RU) were monitored. The dissociation rate is independent of the concentration of analyte used in the experiment, and the dissociation rate constant (kd) was determined from the change in antibody-bound analyte RU over time. The Biacore kinetic data were obtained using a double referencing procedure. […] The KD was calculated as the dissociation rate constant divided by the association rate constant (KD=kd/kₐ). The dissociative half-life (t_{1/2}) was calculated from the dissociation rate constant (t_{1/2}=In2/kd).

The target of assay [15] is T9, C-term Biotin Nav1.7 (3-1) peptide, human (human, not fully specified; C-terminal biotin attached via a G4S linker).
T9 construct: Synthetic peptide; also called Human Nav1.7 3-1 C-term biotin
T9 peptide: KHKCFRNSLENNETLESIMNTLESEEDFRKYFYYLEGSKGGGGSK
Nature of the assay: SPR, captured biotin-peptide, antibody analyte.

Assay [16] addresses T5, full-length human Nav1.7 fused at its …. The assay is described as follows: flow cytometry; % stained hNav1.7-GFP-HEK293 minus parental HEK293. Put shortly:
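Percent-stained values come from FACS of healthy live cells, taking transfected-cell staining minus parental HEK293 staining. Cells were exposed on ice for 20 min to 1-13 nM antibody, then 20 min to 1.7 nM fluorescent anti-human or anti-mouse Fc secondary.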
(A flow cytometer gives signals particle by particle.)

B1: H4H439B (antibody, V domains shown)
VH: QVQLQQWGAGLLKPSETLSLTCAVYGGSFSGHYWSWIRQPPGKGLEWIGEINHRGSTNYNPSLKSRATISVDTSKNQFSLKLSSVTAADTAVYYCAREGSLAARLWFFDLWGRDTLVTVSS
VL: DIQMTQSPSSLSASVGDRGTITCRASQDIRTYLNWYQQKPGKAPKLLIYAASSLQSGVPSRFSGSGSGTDFTLTISSLQPEDFATYYCQQSYGTPYTFGQGTKVEIKR
In the case of B1, the values for the OD450 in assay [1], in assay [2] and in assay [3] were 2 to 4 od, 1 to 2 od and 2 to 4 od, respectively. Besides, the binding result in [4] is recorded as “binds”. In [5], the “Current blocking (Average % inhibition), IonWorks Quattro, 223 nM antibody” value (“Current blocking (Average % inhibition)” below) was found to be 33.6%.

B2: H4H448B (antibody, V domains shown)
VH: EVQLVQSGGGLVQPGRSLRLSCAASGFTFDDYAMHWVRQAPGKGLEWVSGISWNSGSIGYADSVKGRFTISRDNAKNSLYLQMNSLRAEDTALYYCAKDIEYYDILTGYYSYYIMDVWGQGTTVTVSS
VL: DIRMTQSPSSLSASVGDRGTITCRASQNINSYLNWYQLKPGKAPKLLIFAASSLQSGVPSRFSGSGSGTDFTLTISSLQPEDFATYYCQQSYSSPFTFGQGTKVEIKR
In the case of B2, in assay [6], the OD450 is less than 0.2 od. For the same molecule, the OD450 in assay [1] fell in the range of 2 to 4 od. Further, in assay [7], the affinity, expressed as Kd, was 21.9 nM and the t1/2 was 1.8 min. Besides, in assay [8], the binding result is recorded as “no binding”.

B3: H4H471B (antibody, V domains shown)
VH: EVQLVESGGGLVKPGGSLRLSCAASGVTFSDYYMTWIRQAPGKGLEWVSYISTDGRTIYYADSVKGRFTISRDNAKNSLYLQMNNLRAEDTAVYYCARGVDSDDYEDFYSYYDMDVWGQGTTVTVSS
VL: DIQMTQSPSSLSASVGDRVTITCRASQGISNYLAWFQQKPGKAPKSLIYAASSLQGGVPSRFSGSGSGTDFTLTISSLQPEDFATYYCQQYNSYPLTFGGGTKVEIKR
For the molecule B3, the OD450 was less than 0.2 od in assay [9], 2 to 4 od in assay [10] and 2 to 4 od in assay [11]. In addition, in assay [5], the “Current blocking (Average % inhibition)” value is 57%.

B4: H4H468B (antibody, V domains shown)
VH: EVQLVQSGGGVVQPGRSLRLSCTASGFTFSVYGIHWVRQAPGKGLEWVAVIWYDGSNKYYTDSVKGRFTISRDNSKNTLYLQMNSLRAEDTALYYCAREGDLSSSSGSGGYHYVVDVWGQGTMVTVSS
VL: DIQMTQSPSSLSASVGDRVTITCRASQDIRNDLGWYQQKPGNAPKLLIYSTSSLQSGVPSRFSGSGSGTDFTLTISSLQPEDFATYYCLQDYNYPLTFGGGTKVEIKR
B4: the OD450 is less than 0.2 od in assay [12], 2 to 4 od in assay [13], 1 to 2 od in assay [10] and 1 to 2 od in assay [11].

B5: H1H1003B (antibody, V domains shown)
VH: QVQLVESGGGLVQPGGSLRLSCAASGFTLSSYAMSWVRQAPGKGLEWVSTISGSGIIYYTDSVKGRFTISRDSSKNTLYLQMNSLRVEDTAVYYCAKDRGAAAGAFDYWGQGTLVTVSS
VL: AIQLTQSPDSLAVSLGERATIKCKSSQSVLYSSNNKNYLAWYQQKPGQPPNLLIYWASTRESGVPDRFSGSGSGTDFTLTISSLQAEDVAVYYCQQYFSFGQGTKVDIKR
With B5, the OD450 in assay [1], in [2] and in assay [3] was 2 to 4 od throughout. Moreover, the binding result in assay [14] is reported as “binds”. For the same molecule, in assay [15], the Kd turned out to be 2.64 nM. In addition, in assay [15], the t1/2 came to 27.8 min. The “% Binding Nav1.7” value in assay [16] stood at 1.3%. In addition, in [5], the “Current blocking (Average % inhibition)” value was found to be 32.5%.

The term Kd denotes the equilibrium constant for the complex coming apart.

These data come from patent US20160024208A1 (Regeneron, published 2016).
